The record followed here is patent US20250387492A1, “HSP90-TARGETING CONJUGATES AND FORMULATIONS THEREOF” (Fusion Pharmaceuticals Inc., priority 2018, published 2025).

Data set [1] deals with H69 tumor model mice. Put plainly: Biodistribution in H69 tumor model. The following applies: H69 tumor model, 5 mg/kg, 48 h, individual animals. An excerpt: (§1) In other studies, biodistribution of the conjugates was studied with H460 and H69 tumor models.
A short description of data set [2]: Biodistribution in H69 tumor model. The following applies: mouse, in vivo, 5 mg/kg.
From the text: as §1

A short description of data set [3]: Biodistribution in H460 tumor model. The following applies: mouse, in vivo, 5 mg/kg.
From the text: as §1

Data set [4] has as its system H460 tumor model mice. Put plainly: Biodistribution in H460 tumor model. The following applies: 5 mg/kg.
From the text: as §1

The nature of data set [5]: Lu levels in tumor, kidney and liver of mice at 0.5 mg/kg. Conditions: for Tumor uptake (comparison): vs Conjugate 1 and Conjugate 2.
Data set [6] is described as follows: in vivo. Conditions: female, Nude, mouse, iv, 3.7 MBq, total radioactivity. As to the method:
Radioactive conjugate accumulation was measured in tumor, plasma and healthy tissues of NCI-H460 tumor-bearing mice (lung cancer). […] For each tissue, the percent injected dose per gram of tissue % ID/g was calculated.

[7] abbreviates: Concentration in H460 tumor, H460 tumor model, individual animals.
[8] abbreviates: Concentration in Mouse kidney, H460 tumor model, individual animals.
Where [9] appears, read: Concentration in Mouse plasma, H460 tumor model, individual animals.

Structures are written as SMILES. “Also recorded” adds a separate entry of the source.

With `CCNC(=O)c1nnc(-c2cc(C(C)C)c(O)cc2O)n1-c1ccc(CN2CCN(C(=O)CCNC(=O)[C@@H](CCCCN)NC(=O)[C@@H](CCCCN)NC(=O)[C@@H](CCCCN)NC(=O)CN3CCN(CC(=O)O)CCN(CC(=O)O)CCN(CC(=O)O)CC3)CC2)cc1` [Conjugate 3], in data set [1], the “Concentration in H69 tumor” value amounted to 200 nM. Further, the level at time molar at 48 h in data set [2] (Concentration in H69 tumor, H69 tumor model, 48 h, individual animals) was 200 nM; in data set [3] (setting [7]) it was 91 nM; in data set [3] (setting [8]), 4290 nM; in data set [3] (setting [9]), 11 nM. For the same compound, the level at time molar at 24 h in data set [2] (Concentration in Mouse liver, H69 tumor model, individual animals) was determined as 80 nM; in data set [2] (Concentration in Mouse plasma, H69 tumor model, individual animals), 38 nM; in data set [3] (setting [9]) it was 11 nM. In addition, the level at time molar at 1 h was 1220 nM in data set [2] (Concentration in Mouse plasma, H69 tumor model, 1 h, individual animals) and 4520 nM in data set [3] (setting [8]). Further, the “Concentration in Mouse liver” value in data set [4] (H460 tumor model, 1 h, individual animals) came to 70 nM.

For `CCNC(=O)c1nnc(-c2cc(C(C)C)c(O)cc2O)n1-c1ccc(CN2CCN(C(=O)CCNC(=O)[C@@H](CCC(=O)O)NC(=O)[C@@H](CCC(=O)O)NC(=O)[C@@H](CCC(=O)O)NC(=O)CN3CCN4CCN5CCN(CC3)CC(=O)[O][Lu]([O]C(=O)C4)[O]C(=O)C5)CC2)cc1` [Conjugate 2], the level at time molar at 24 h was 240 nM in data set [2] (Concentration in H69 tumor, H69 tumor model, individual animals); 330 nM in data set [2] (Tumor Levels, H69, 5 mg/kg, H69); 1450 nM in data set [3] (setting [8]); 650 nM in data set [3] (Tumor Levels, H460 (2), H460 study (2)). The “Average Lu in kidney” value in data set [5] was determined as 2.86 % ID/g. Further, in data set [5], the “Average Lu in tumor” value is listed as 0.92 % ID/g. Also, the level at time molar at 1 h was found to be 1170 nM in data set [3] (setting [7]); 1550 nM in data set [3] (setting [8]); 16 nM in data set [3] (Concentration in Mouse liver, H460 tumor model, individual animals). Further, the values for the level at time molar at 48 h in data set [3] (setting [7]) and in data set [3] (setting [8]) were 220 nM and 540 nM, respectively. Moreover, the “Clearance from plasma” value in data set [4] (H460 and H69 tumor models) is “clear rapidly from plasma; also recorded: slightly superior”. For the same compound, the “Tumor retention (comparison)” value in data set [4] (H460 and H69 tumor models, Conjugate 1 vs Conjugate 2) was “similar”. The “Concentration in Mouse kidney” value in data set [4] (H460 tumor model, 48 h, individual animals) was found to be 540 nM.

On to `CCNC(=O)c1nnc(-c2cc(C(C)C)c(O)cc2O)n1-c1ccc(CN2CCN(C(=O)CCNC(=O)[C@@H](CCC(=O)O)NC(=O)[C@@H](CCC(=O)O)NC(=O)[C@@H](CCC(=O)O)NC(=O)CN3CCN(CC(=O)O)CCN(CC(=O)O)CCN(CC(=O)O)CC3)CC2)cc1` [^177Lu-2, metal not drawn], for which the tissue uptake at 6 h in data set [6] (Radioactivity in Bone Marrow) stood at 0.01 %ID/g; in data set [6] (Radioactivity in Brain), 0.01 %ID/g; in data set [6] (Radioactivity in Eyes), 0.12 %ID/g; in data set [6] (Radioactivity in Kidney), 4.29 %ID/g; in data set [6] (Radioactivity in Liver), 0.33 %ID/g; in data set [6] (Radioactivity in Tumor), 1.21 %ID/g.

As to `CCNC(=O)c1nnc(-c2cc(C(C)C)c(O)cc2O)n1-c1ccc(CN2CCN(C(=O)CCNC(=O)[C@@H](CCC(=O)O)NC(=O)[C@@H](CCC(=O)O)NC(=O)[C@@H](CCC(=O)O)NC(=O)COCCOCCNC(=O)CCCCn3cc(CN(CCCNC(=O)CC[C@H](C(=O)O)N4CCN5CCN6CCN(CC4)CC(=O)[O][Lu]([O]C(=O)C6)[O]C(=O)C5)C(=O)CCCNC(=O)CCCc4ccc(I)cc4)nn3)CC2)cc1` [Conjugate 10], in data set [5], the “Average Lu in Liver” value turned out to be 1.51 % ID/g; the “Average Lu in kidney” value came out at 11.18 % ID/g; the “Average Lu in tumor” value is given as 8.49 % ID/g; the “Tumor uptake (comparison)” value was “noticeably higher than Conjugate 1 and Conjugate 2”.

Consider `CCNC(=O)c1nnc(-c2cc(C(C)C)c(O)cc2O)n1-c1ccc(CN2CCN(C(=O)CCNC(=O)CC[C@@H](NC(=O)CC[C@@H]3C(=O)[O][Lu]4[O]C(=O)CN5CCN(CC(=O)O)CCN3CCN(CC5)CC(=O)[O]4)C(=O)N3CCN(Cc4ccc(-n5c(C(=O)NCC)nnc5-c5cc(C(C)C)c(O)cc5O)cc4)CC3)CC2)cc1` [Conjugate 9], for which, in data set [5], the “Average Lu in Liver” value was found to be 2.92 % ID/g; the “Average Lu in kidney” value was determined as 2.40 % ID/g; the “Average Lu in tumor” value amounted to 5.73 % ID/g; the “Tumor uptake (comparison)” value is “noticeably higher than Conjugate 1 and Conjugate 2”.
